Test results from the Immune Epitope Database (IEDB).

Tests used:
[1] = target: HLA-B*15:17; experiment: IEDB peptide-MHC binding, purified MHC/competitive/fluorescence; filed as Kd, often an IC50 or EC50 that approximates it; ≥ and ≤ were set here for values at or beyond the usual limits of such assays
[2] = target: HLA-B*18:01; experiment: IEDB peptide-MHC binding, purified MHC/direct/fluorescence; filed as Kd, often an IC50 or EC50 that approximates it; ≥ and ≤ were set here for values at or beyond the usual limits of such assays
[3] = target: HLA-B*46:01; experiment: as above
[4] = target: HLA-B*27:05; experiment: as above
[5] = target: HLA-B*58:01; experiment: as above
[6] = target: HLA-B*40:01; experiment: as above
[7] = target: HLA-A*02:01; experiment: as above
[8] = target: HLA-A*31:01; experiment: as above
[9] = target: HLA-A*03:01; experiment: as above
[10] = target: HLA-A*69:01; experiment: as above
[11] = target: HLA-B*48:01; experiment: as above
[12] = target: HLA-A*11:01; experiment: as above
[13] = target: HLA-A*01:01; experiment: as above
[14] = target: HLA-B*57:01; experiment: as above
[15] = target: HLA-B*15:01; experiment: as above
[16] = target: HLA-A*29:02; experiment: as above; details: source organism: Yellow fever virus
[17] = target: HLA-B*44:02; experiment: as above; details: source organism: Yellow fever virus
[18] = target: HLA-B*39:01; experiment: as above; details: source organism: Camelpox virus M-96
[19] = target: HLA-B*18:01; experiment: IEDB peptide-MHC binding, purified MHC/competitive/fluorescence; filed as Kd, often an IC50 or EC50 that approximates it; ≥ and ≤ were set here for values at or beyond the usual limits of such assays
[20] = target: HLA-B*27:03; experiment: as above
[21] = target: HLA-A*02:01; experiment: as above
[22] = target: HLA-A*69:01; experiment: as above
[23] = target: HLA-B*39:01; experiment: as above
[24] = target: HLA-A*68:02; experiment: IEDB peptide-MHC binding, purified MHC/direct/fluorescence; filed as Kd, often an IC50 or EC50 that approximates it; ≥ and ≤ were set here for values at or beyond the usual limits of such assays; details: source organism: Limestone Canyon virus
[25] = target: HLA-A*02:11; experiment: as above; details: source organism: Limestone Canyon virus
[26] = target: HLA-A*26:01; experiment: as above; details: source organism: Orthohantavirus moroense
[27] = target: HLA-A*02:19; experiment: as above; details: source organism: Limestone Canyon virus
[28] = target: HLA-A*02:12; experiment: as above; details: source organism: Limestone Canyon virus
[29] = target: HLA-A*02:16; experiment: as above; details: source organism: Limestone Canyon virus
[30] = target: HLA-A*02:03; experiment: as above; details: source organism: Limestone Canyon virus
[31] = target: HLA-C*15:02; experiment: as above; details: source organism: West Nile virus
[32] = target: HLA-B*46:01; experiment: IEDB peptide-MHC binding, purified MHC/competitive/fluorescence; filed as Kd, often an IC50 or EC50 that approximates it; ≥ and ≤ were set here for values at or beyond the usual limits of such assays; details: source organism: Homo sapiens
[33] = target: HLA-B*15:01; experiment: as above; details: source organism: Homo sapiens
[34] = target: HLA-A*26:01; experiment: as above; details: source organism: Homo sapiens
[35] = target: HLA-B*51:01; experiment: as above; details: source organism: Homo sapiens
[36] = target: HLA-B*57:01; experiment: as above; details: source organism: Homo sapiens
[37] = source organism: Camelpox virus M-96
[38] = source organism: Yellow fever virus
[39] = source organism: Orthohantavirus puumalaense

Work on NSNINVINY yielded a Kd ([1]; source organism: Vaccinia virus WR) of no less than 20 µM, a Kd [2, 37] of no less than 20 µM and a Kd [3, 37] of no less than 20 µM. The Kd [4, 37] was no less than 20 µM, the Kd [5, 37] was no less than 20 µM and the Kd [6, 37] was no less than 20 µM. It also gave a Kd [7, 37] of no less than 20 µM, a Kd [8, 37] of no less than 20 µM and a Kd [9, 37] of no less than 20 µM. For the same sequence, the Kd [10, 37] was no less than 20 µM, the Kd [11, 37] was no less than 20 µM and the Kd [12, 37] was no less than 20 µM. The Kd [13, 37] was 5.44 µM and the Kd [14, 37] was no less than 20 µM.
In the case of SCRVKLSAL, the Kd [2, 38] is reported as no less than 20 µM, the Kd [3, 38] is reported as no less than 20 µM and the Kd [4, 38] is reported as no less than 20 µM. For the same sequence, the Kd [5, 38] was no less than 20 µM, the Kd [15, 38] was no less than 20 µM and the Kd [6, 38] was no less than 20 µM. The Kd [7, 38] was no less than 20 µM, the Kd [8, 38] was no less than 20 µM and the Kd [16] was no less than 20 µM. For the same sequence, the Kd [9, 38] was no less than 20 µM, the Kd [10, 38] was no less than 20 µM and the Kd [17] was no less than 20 µM. The Kd [11, 38] was no less than 20 µM, the Kd [12, 38] was no less than 20 µM and the Kd [13, 38] was no less than 20 µM. The Kd [14, 38] was no less than 20 µM.
YHDDDNTTT showed a Kd [18] of 0.343 µM.
In the case of ATKDSFQSF, the Kd [19, 39] is reported as no less than 20 µM, the Kd [20, 39] is reported as no less than 20 µM and the Kd [21, 39] is reported as no less than 20 µM. The Kd [22, 39] was no less than 20 µM, the Kd [23, 39] was no less than 20 µM and the Kd ([15]; source organism: Orthohantavirus moroense) was 0.372 µM. It also gave a Kd [24] of no less than 20 µM, a Kd [25] of no less than 20 µM and a Kd [26] of 0.556 µM. The Kd ([9]; source organism: Limestone Canyon virus) was no less than 20 µM, the Kd [27] was no less than 20 µM and the Kd [28] was no less than 20 µM. For the same sequence, the Kd [29] was no less than 20 µM and the Kd [30] was no less than 20 µM.
Work on RLARAIIEL yielded a Kd [31] of 2.42 µM and a Kd ([10]; source organism: West Nile virus) of 3.79 µM.
In the case of VTENKKIQY, the Kd ([19]; source organism: Homo sapiens) is reported as no less than 20 µM, the Kd [32] is reported as no less than 20 µM and the Kd ([20]; source organism: Homo sapiens) is reported as no less than 20 µM. It also gave a Kd [33] of no less than 20 µM, a Kd ([21]; source organism: Homo sapiens) of no less than 20 µM and a Kd [34] of no less than 20 µM. It also gave a Kd ([22]; source organism: Homo sapiens) of no less than 20 µM, a Kd ([23]; source organism: Homo sapiens) of no less than 20 µM and a Kd ([1]; source organism: Homo sapiens) of no less than 20 µM. It also gave a Kd [35] of no less than 20 µM and a Kd [36] of no less than 20 µM.
